Experimental data taken from paper PMC5737966 (Nature structural & molecular biology, 2017).
Read-outs that look alike come from different tables or passages of the source.

How the values were obtained:
[1] = biological target: heavy chain (HC) of the 2-hep HMM construct of human β-cardiac myosin; assay: stoichiometry of the purified complex
actin = assay: MST
[2] = biological target: human β-cardiac short S1 (sS1) with a C-terminal GFP, wild type (human) (UniProt P12883); assay: MST
[3] = biological target: R249Q human β-cardiac sS1 with a C-terminal GFP (human, UniProt P12883 1-808, R249Q); assay: MST
[4] = biological target: R403Q human β-cardiac sS1 with a C-terminal GFP (human, UniProt P12883 1-808, R403Q); assay: MST
[5] = biological target: T1, human β-cardiac short S1 (sS1) with a C-terminal GFP, wild type (human, UniProt P12883 1-808); assay: MST
[6] = biological target: R453C human β-cardiac sS1 with a C-terminal GFP (human, UniProt P12883 1-808, R453C); assay: MST
[7] = biological target: T1, human β-cardiac short S1 (sS1) with a …; assay: MST; remark: listed apart in the source
[8] = biological target: full-length recombinant human cardiac MyBP-C, nonphosphorylated (human, UniProt Q14896 1-1274); assay: MST
full-length recombinant human cardiac MyBP-C, nonphosphorylated, sequence (Q14896 whole entry): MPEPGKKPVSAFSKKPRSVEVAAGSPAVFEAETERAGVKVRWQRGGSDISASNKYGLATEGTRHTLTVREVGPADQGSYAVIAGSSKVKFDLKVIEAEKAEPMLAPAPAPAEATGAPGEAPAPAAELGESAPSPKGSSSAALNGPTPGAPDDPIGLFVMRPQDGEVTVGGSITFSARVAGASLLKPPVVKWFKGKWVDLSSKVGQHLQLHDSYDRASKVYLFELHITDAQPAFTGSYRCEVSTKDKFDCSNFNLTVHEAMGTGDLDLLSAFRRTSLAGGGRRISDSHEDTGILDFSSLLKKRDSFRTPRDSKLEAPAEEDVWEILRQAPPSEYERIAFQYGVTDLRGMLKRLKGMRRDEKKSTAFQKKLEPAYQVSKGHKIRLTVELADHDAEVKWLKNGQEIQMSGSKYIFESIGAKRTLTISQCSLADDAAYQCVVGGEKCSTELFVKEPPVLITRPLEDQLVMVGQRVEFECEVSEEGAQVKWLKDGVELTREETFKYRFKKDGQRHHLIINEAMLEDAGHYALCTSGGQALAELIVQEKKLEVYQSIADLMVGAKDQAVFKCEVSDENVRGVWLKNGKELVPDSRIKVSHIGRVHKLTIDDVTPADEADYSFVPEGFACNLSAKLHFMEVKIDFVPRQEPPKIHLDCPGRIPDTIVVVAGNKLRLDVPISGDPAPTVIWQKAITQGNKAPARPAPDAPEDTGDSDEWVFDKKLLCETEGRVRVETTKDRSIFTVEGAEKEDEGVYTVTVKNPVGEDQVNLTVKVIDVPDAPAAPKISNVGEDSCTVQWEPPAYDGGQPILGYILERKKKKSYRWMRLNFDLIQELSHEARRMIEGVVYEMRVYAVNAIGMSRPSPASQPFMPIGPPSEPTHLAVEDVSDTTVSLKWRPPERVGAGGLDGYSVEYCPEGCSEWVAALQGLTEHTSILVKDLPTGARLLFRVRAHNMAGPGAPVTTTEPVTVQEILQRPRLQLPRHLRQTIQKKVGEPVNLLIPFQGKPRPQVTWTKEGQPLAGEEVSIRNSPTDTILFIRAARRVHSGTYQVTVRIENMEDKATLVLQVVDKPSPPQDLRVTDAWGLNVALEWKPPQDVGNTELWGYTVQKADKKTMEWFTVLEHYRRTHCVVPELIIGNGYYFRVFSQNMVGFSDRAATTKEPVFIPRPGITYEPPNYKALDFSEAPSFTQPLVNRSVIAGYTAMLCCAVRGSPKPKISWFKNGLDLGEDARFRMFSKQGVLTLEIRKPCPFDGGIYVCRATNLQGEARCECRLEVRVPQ

[9] = biological target: MyBP-C (construct and phosphorylation state not told for these experiments) (human, UniProt Q14896 1-1274); assay: MST
MyBP-C (construct and phosphorylation state not told for these experiments), sequence (Q14896 whole entry): as above

## human cardiac myosin essential light chain (ELC) (from UniProt P08590 1-195) (natural protein)
[1]
  stoichiometry N: 1

## MyBP-C (construct and phosphorylation state not told for these experiments) (from UniProt Q14896 1-1274) (natural protein)
actin
  Kd: 5 µM

## actin (natural protein)
[2]
  Kd: 0.25 µM

B1: human cardiac myosin regulatory light chain (RLC) (natural protein)
chain: MAPKKAKKRAGGANSNVFSMFEQTQIQEFKEAFTIMDQNRDGFIDKNDLRDTFAALGRVNVKNEEIDEMIKEAPGPINFTVFLTMFGEKLKGADPEETILNAFKVFDPEGKGVLKADYVREMLTTQAERFSKEEVDQMFAAFPPDVTGNLDYKNLVHIITHGEEKD
[1]
  stoichiometry N: 1

B2: proximal part of human cardiac myosin subfragment 2 (proximal S2), wild type (domain or fragment, UniProt P12883 841-966, looked up)
chain: KSAEREKEMASMKEEFTRLKEALEKSEARRKELEEKMVSLLQEKNDLQLQVQAEQDNLADAEERCDQLIKNKIQLEAKVKEMNERLEDEEEMNAELTAKKRKLEDECSELKRDIDDLELTLAKVEK
[3]
  Kd: > 300 µM
[4]
  Kd: 54 ± 4 µM
[5]
  Kd: 46 ± 7 µM
[6]
  Kd: > 90 µM
[7]
  Kd: 4 ± 1 µM

B3: R870H mutant proximal S2 of human cardiac myosin (domain or fragment, UniProt P12883 841-966, looked up)
chain: KSAEREKEMASMKEEFTRLKEALEKSEARHKELEEKMVSLLQEKNDLQLQVQAEQDNLADAEERCDQLIKNKIQLEAKVKEMNERLEDEEEMNAELTAKKRKLEDECSELKRDIDDLELTLAKVEK
[5]
  Kd: 59 ± 2 µM

B4: human β-cardiac short S1 (sS1) labelled with Cy5 on cysteine residues (domain or fragment, UniProt P12883 1-808, looked up)
chain: MGDSEMAVFGAAAPYLRKSEKERLEAQTRPFDLKKDVFVPDDKQEFVKAKIVSREGGKVTAETEYGKTVTVKEDQVMQQNPPKFDKIEDMAMLTFLHEPAVLYNLKDRYGSWMIYTYSGLFCVTVNPYKWLPVYTPEVVAAYRGKKRSEAPPHIFSISDNAYQYMLTDRENQSILITGESGAGKTVNTKRVIQYFAVIAAIGDRSKKDQSPGKGTLEDQIIQANPALEAFGNAKTVRNDNSSRFGKFIRIHFGATGKLASADIETYLLEKSRVIFQLKAERDYHIFYQILSNKKPELLDMLLITNNPYDYAFISQGETTVASIDDAEELMATDNAFDVLGFTSEEKNSMYKLTGAIMHFGNMKFKLKQREEQAEPDGTEEADKSAYLMGLNSADLLKGLCHPRVKVGNEYVTKGQNVQQVIYATGALAKAVYERMFNWMVTRINATLETKQPRQYFIGVLDIAGFEIFDFNSFEQLCINFTNEKLQQFFNHHMFVLEQEEYKKEGIEWTFIDFGMDLQACIDLIEKPMGIMSILEEECMFPKATDMTFKAKLFDNHLGKSANFQKPRNIKGKPEAHFSLIHYAGIVDYNIIGWLQKNKDPLNETVVGLYQKSSLKLLSTLFANYAGADAPIEKGKGKAKKGSSFQTVSALHRENLNKLMTNLRSTHPHFVRCIIPNETKSPGVMDNPLVMHQLRCNGVLEGIRICRKGFPNRILYGDFRQRYRILNPAAIPEGQFIDSRKGAEKLLSSLDIDHNQYKFGHTKVFFKAGLLGLLEEMRDERLSRIITRIQAQSRGVLARMEYKKLLERR
modifications: Cy5-labeled cysteine residues
[8]
  Kd: 17 ± 2 µM

B5: proximal S2 of human cardiac myosin labelled with Cy5 (domain or fragment, UniProt P12883 841-966, looked up)
chain: KSAEREKEMASMKEEFTRLKEALEKSEARRKELEEKMVSLLQEKNDLQLQVQAEQDNLADAEERCDQLIKNKIQLEAKVKEMNERLEDEEEMNAELTAKKRKLEDECSELKRDIDDLELTLAKVEK
modifications: Cy5 (site not stated)
[9]
  Kd: ~7 µM
